Measurements reported in patent US20140341915A1 (DEUTSCHES KREBSFORSCHUNGSZENTRUM, published 2014).

Legend:
[1] = target: T1, B7-H6-Ig-fusionprotein consisting of the extracellular domain of B7-H6 fused to an IgG1-Fc domain (human, UniProt Q68D85 25-267); assay: ELISA
T1 construct: Junction residues from restriction sites are not given; also called B7-H6-Ig-FP
T1 sequence: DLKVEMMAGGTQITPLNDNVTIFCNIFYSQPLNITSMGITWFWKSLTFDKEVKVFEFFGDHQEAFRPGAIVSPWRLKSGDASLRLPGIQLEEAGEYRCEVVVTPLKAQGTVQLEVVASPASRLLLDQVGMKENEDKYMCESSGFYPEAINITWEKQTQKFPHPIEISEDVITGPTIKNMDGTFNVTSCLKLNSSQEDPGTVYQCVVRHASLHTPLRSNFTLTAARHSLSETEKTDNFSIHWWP

[2] = target: T2, B7-H6 polypeptide on cells (BA/F3-B7-H6 transfectants; cell lines expressing B7-H6 endogenously) (human, UniProt Q68D85 25-454); assay: immunohistochemistry on acetone-fixed cytospins, mAb at 5 µg/ml
T2 construct: whole, on cells; The construct used for the BA/F3 transfectants is not described
T2 sequence (looked up): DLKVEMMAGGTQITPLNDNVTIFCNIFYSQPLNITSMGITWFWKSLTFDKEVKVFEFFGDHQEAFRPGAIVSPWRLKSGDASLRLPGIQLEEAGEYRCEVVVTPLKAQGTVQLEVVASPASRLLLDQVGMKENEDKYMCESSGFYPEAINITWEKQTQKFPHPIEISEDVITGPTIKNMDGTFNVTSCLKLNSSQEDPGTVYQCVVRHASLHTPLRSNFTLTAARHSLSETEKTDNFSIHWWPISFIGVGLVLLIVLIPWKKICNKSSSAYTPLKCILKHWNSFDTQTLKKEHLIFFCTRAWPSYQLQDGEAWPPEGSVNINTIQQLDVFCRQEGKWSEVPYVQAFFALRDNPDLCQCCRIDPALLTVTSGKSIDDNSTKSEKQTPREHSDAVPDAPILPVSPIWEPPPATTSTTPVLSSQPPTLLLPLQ
Description: Acetone-fixed cytospins of a 1:1 mixture of Ba/F3 and Ba/F3-B7-H6 cells were stained using the Dual Envision+System-HRP (Dako). After blocking endogenous peroxidase activity, cytospins were blocked with 10% goat serum and 0.1 mg/ml human
IgG. […] After incubation with 3,3′-diaminobenzidine (DAB) substrate solution, cell nuclei were counterstained with Hematoxylin and mounted cyotospins were analyzed by light microscopy.

B1: anti-B7-H6 monoclonal antibody (mAb) 1.18 (antibody, V domains shown)
VH: DVKLVESGGGLVKPGGSLKLSCAASGFTFSSYTMSWVRQTPEKRLEWVATINNGGSYTYYPDSVKGRFTISRDNAKNTLYLQMSSLKSEDTAIYYCYGYDPAWFAYWGQGTLVTVSA
VL: QAVVTQESALTTSPGETVTLTCRSSTGAVTTSNYANWVQEKPDHLFTGLIGGTNNRAPGVPARFSGSLIGDKAALTITGAQTEDEAIYFCALWYSNHWVFGGGTKLTVLG
[1]
  binding result: binds
[2]
  binding result: binds
